Source: patent publication US20220112288A1 (published 2022)
Residue numbers refer to the chain shown, from its start. Blank lines part the entries; values can stand above or below the binder they belong to.

Molecular target: T1, Recombinant human CD4 (R&D Systems, Cat. 10327-CD) (human, UniProt P01730 26-390, limits assumed)
T1 construct: Bought protein; also called huCD4
Experiment: BLI (Octet Red384), purified antibody on anti-mouse Fc sensors, human CD4 100/50/25 nM, global 1:1 fit;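 also: antibodies loaded at 10 µg/mL, curves fitted across association and dissociation phases, with an unrelated mouse-derived antibody serving as internal reference control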
Procedure: A three-point, 1:1 serial dilution of human and rhesus CD4 proteins were prepared using kinetics buffer as diluent. […] 10 mM Glycine pH 1.7, and kinetics buffer were used to regenerate the AMC biosensors. […] An irrelevant antibody derived from the Alivamab mouse was included in the assay as an internal reference control.
After completion of the kinetic characterization assays, data was analyzed in Forte Bio analysis software v11. The Y-axis was aligned to the final 5 seconds of the baseline step, with inter-step alignment to the dissociation step. Savitzky-Golay Filtering was used to smooth the data. Kinetic curves were fit to both association and dissociation steps using a 1:1 stoichiometry model.

Kd: 9.4 nM | Response: 0.16 | koff: 0.0012 s⁻¹ | kon: 130000 M⁻¹ s⁻¹
B1: 75110_07H07A (antibody, V domains shown)
VH: EVQVVESGGGLVQPGGSLRLSCAASGFTFSSYWMSWVRQAPGKGLEWVANIKEEGSEKYYVDSVKGRFTISRDNAKNSLYLQMNSLRAEDTAVYYCVREGGQWLALDYWGQGTLVTVSS
VL: DIQMTQSPSSVSGSVGDRVTITCRASQGISSWLAWYQQKPGKAPKLLIFGASSLQSGVPSRFSGSGSGTDFTLTISSLQPEDFATYYCQQANSFPWTFGQGTKVQIK
notes: Tested as antibody purified from AlivaMab Mouse Kappa hybridoma (human V regions, kappa light chain, mouse Fc captured by anti-mouse Fc sensors)

Kd: 14 nM | Response: 0.16 | koff: 0.0012 s⁻¹ | kon: 86000 M⁻¹ s⁻¹
B2: 75110_13P22A (antibody, V domains shown)
VH: QVQLQQWGAGLLKPSETLSLTCAAYGGSFSGYYWSWIRQSPGKGLEWIGEINQSGNTNYNPSLKSRVTISADTSKNQFSLKLSSVTAADTAVYYCARVLNWFDYWGQGILVTVSS
VL: B1 VL with G13A, S31D, P40S, K45D, G50A, W96Y, V104L, Q105E
notes: as for B1

Kd: 53 nM | Response: 0.09 | koff: 0.0045 s⁻¹ | kon: 86000 M⁻¹ s⁻¹
B3: 75110_09N20A (antibody, V domains shown)
VH: B1 VH with V4L, K52N, E54D
VL: B1 VL with G13A, F49Y, G50A, R61S, S76N, Q105A
notes: as for B1

Kd: 26 nM | Response: 0.19 | koff: 0.0033 s⁻¹ | kon: 120000 M⁻¹ s⁻¹
B4: 75110_12H17A (antibody, V domains shown)
VH: B1 VH with V4L, S31D, E54D, S56N, Y80F, V97A, T113A
VL: B1 VL with G13A, L46F, F49S, S63T, Q105E
notes: as for B1

Kd: 5 nM | Response: 0.08 | koff: 0.0015 s⁻¹ | kon: 290000 M⁻¹ s⁻¹
B5: 75110_12C19A (antibody, V domains shown)
VH: B1 VH with V4L, E54D, E57D, Y94H
VL: B1 VL with F49Y, A84V, Q105E
notes: as for B1

Kd: 13 nM | Response: 0.25 | koff: 0.0022 s⁻¹ | kon: 170000 M⁻¹ s⁻¹
B6: 75110_12H19A (antibody, V domains shown)
VH: EVQLVESGGGLVQPGGSLRLSCAASGFTFSSYWMSWVRQAPGQGLEWVANINEDGNEKYHVDSVKGRLTISRDNAKNSLYLQMNSLRGVDTAVYFCAREGGQWLALDYWGQGALVTVSS
VL: B1 VL with G13A, T20S, F49Y, S53G, Q105E
notes: as for B1

Kd: 48 nM | Response: 0.21 | koff: 0.004 s⁻¹ | kon: 85000 M⁻¹ s⁻¹
B7: 75110_09G15A (antibody, V domains shown)
VH: B1 VH with V4L, S31D, K52N, E53Q, E54D, Y60S, V93I, Y94F, V97A
VL: B1 VL with G13A, F49Y, S76N, A84T, S93I, Q105E
notes: as for B1

Kd: 7.1 nM | Response: 0.19 | koff: 0.0006 s⁻¹ | kon: 85000 M⁻¹ s⁻¹
B8: 75110_07J24A (antibody, V domains shown)
VH: QAQLQESGPGLVKPSETLSLTCTVSGGSISSYYYNWIRQPAGKGLEWIGRIYTSGRTDYNPSLKSRVTMSADTSKNQFSLKLSSVTAADTAVYYCARDEGPTDAFDIWGQGTMVTVSS
VL: DIVMTQTPLSLPVTPGEPASISCRSSQSLLDSDDGNTYLDWYLQKPGQSPHLLIYTLSYRASGVPDRFSGSGSGSDFTLKISRVEAEDVGVYYCMQRIEFPFTFGPGTKVDIK
notes: Tested as antibody purified from AlivaMab Mouse Kappa hybridoma (human V regions, kappa light chain, mouse Fc captured by anti-mouse Fc sensors); also called 75110_07124A

Kd: 8.4 nM | Response: 0.22 | koff: 0.0014 s⁻¹ | kon: 170000 M⁻¹ s⁻¹
B9: 75110_08F20A (antibody, V domains shown)
VH: QVQLQESGPGLVKPSETLSLTCSVSGGSISTYYWSWIRQPAGKGLEWIGRICTTENTNYNPSLKSRVTMSIDSSKNQFSLKLSSVTAADTAVYYCARDLERLNYYGMDVWGQGATVTVSS
VL: DIQMTQSPSSLSASVGDRVTITCQASQDISKYLNWYQQKPGIAPKLLIYDASNLETGVPSRFSGSGSGTDFTFTISSLQPEDFATYYCQQYDSLPITFGQGTRLEIK
notes: as for B1

Kd: 20 nM | Response: 0.15 | koff: 0.0035 s⁻¹ | kon: 180000 M⁻¹ s⁻¹
B10: 75110_08G08A (antibody, V domains shown)
VH: B9 VH
VL: B9 VL with K31N, F83I
notes: as for B1

Kd: < 0.001 nM | Response: 0.2 | koff: < 1e-07 s⁻¹ | kon: 84000 M⁻¹ s⁻¹
B11: 75110_07N04A (antibody, V domains shown)
VH: QVQLQESGPGLVKPSETLSLTCSVSGVSSTSFYWSWIRQPAGKGLDWIGRIYTSGSTNYNPSLKSRVTMSVDTSKNQFSLKLSSVTAADTAVYYCARDPGYSDAFAIWGQGTMVTVSS
VL: not shown
notes: as for B1

Kd: 1.8 nM | Response: 0.22 | koff: 0.00021 s⁻¹ | kon: 110000 M⁻¹ s⁻¹
B12: 75110_12K21A (antibody, V domains shown)
VH: B2 VH with A24V, Y25S, S40P, Q53H, N56S, Y59C, A71V, K75N, W101Y, I109T
VL: DIQMTQSPSSVSASVGDRVTITCRASPDIANWLAWYQQKPGKAPELLIYAASSLQSGVPSRFSGSGSGTDFTLTISSLQPEDFATYFCQQANSFPLTFGGGTKVESK
notes: as for B1

Kd: 3 nM | Response: 0.17 | koff: 0.00029 s⁻¹ | kon: 95000 M⁻¹ s⁻¹
B13: 75110_13P21A (antibody, V domains shown)
VH: B2 VH with A24V, Y25S, S40P, Q53H, N56S, Y59C, A71V, K75N, W101Y, I109T
VL: B12 VL
notes: as for B1

Kd: 11 nM | Response: 0.21 | koff: 0.0013 s⁻¹ | kon: 120000 M⁻¹ s⁻¹
B14: 75110_13C13A (antibody, V domains shown)
VH: B2 VH with A24V, Y25S, S40P, Q53H, N56S, Y59C, A71V, V92M, W101F, I109T
VL: B12 VL with S7T, D28G, A30S
notes: as for B1

Kd: 0.38 nM | Response: 0.19 | koff: 0.00019 s⁻¹ | kon: 500000 M⁻¹ s⁻¹
B15: 75110_14G10A (antibody, V domains shown)
VH: EVQLVESGGGLVKPGGSLRLSCAASGFTFSSYSMNWVRQAPGKGLEWVSFISSSSSYIYYADSVKGRFTISRDNAKNSLYLQMNSLRAEDTAVYYCARERGDDYGDYEGAFDIWGQGTMVTVSS
VL: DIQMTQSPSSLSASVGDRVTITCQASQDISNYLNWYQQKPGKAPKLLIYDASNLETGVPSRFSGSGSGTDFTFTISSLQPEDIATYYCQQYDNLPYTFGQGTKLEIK
notes: as for B1

Kd: 14 nM | Response: 0.1 | koff: 0.0022 s⁻¹ | kon: 160000 M⁻¹ s⁻¹
B16: 75110_07J02A (antibody, V domains shown)
VH: EVQLVESGGGLVQPGGSLRLSCAASGFTFSSYWMSWVRQAPGKGLEWVANIKEDGSEKYYVDSVKGRFTISRDNAKNSLYLQMNSLRAEDTAVYYCARDGSYSGYGMDVWGQGTTVTVSS
VL: AIQMTQSPSSLSASVGDRVTITCRASQGIRNDLGWYQQKPGKAPKLLIYAASSLQSGVPSRFSGRGSGTDFALTISSLQPEDFATYYCLLDYNYPYTFGQGTRLEIK
notes: Tested as antibody purified from AlivaMab Mouse Kappa hybridoma (human V regions, kappa light chain, mouse Fc captured by anti-mouse Fc sensors); also called 75110_07102A

Kd: 3.1 nM | Response: 0.2 | koff: 0.00049 s⁻¹ | kon: 160000 M⁻¹ s⁻¹
B17: 75110_10K21A (antibody, V domains shown)
VH: EVQLVESGGGLVQPGGSLRLSCAASGFTFSSYWMTWVRQAPGKGLEWVANIKQDGSEKYYVDSVKGRFTISRDNAKNSLYLQMNSLRAEDTAVYYCVRDRYDALDIWGQGTMVTVSS
VL: B16 VL with G34N, R65S, A72T, P80A, L90K, R103K
notes: as for B1

Kd: 6.6 nM | Response: 0.12 | koff: 0.00078 s⁻¹ | kon: 120000 M⁻¹ s⁻¹
B18: 75110_08A13A (antibody, V domains shown)
VH: B16 VH with T28I, E53Q, V61M, G100N, S103Y, G104Y
VL: B16 VL with N31D, Y49F, R61S, R65S, A72T, L90H, D91H, R103K
notes: as for B1
